Results published in patent US20200377608A1 (ADAGENE, published 2020).

Target: T1, Recombinant human CD137 protein (human, UniProt Q07011 24-186)
T1 construct: also called CD137 receptor; 4-1BB
Test: competition ELISA against biotinylated CD137 ligand on coated human CD137

B1: αCD137-AB1 (antibody, human IgG4 S228P, kappa, V domains shown)
VH: EVQLVESGGGLVQPGGSLRLSCAASGFSLSTGGVGVGWIRQAPGKGLEWLALIDWADDKYYSPSLKSRLTISRDNSKNTLYLQLNSLRAEDTAVYYCARGGSDTVIGDWFAYWGQGTLVTVSS
VL: DIQLTQSPSSLSASVGDRVTITCRASQSIGSYLAWYQQKPGKAPKLLIYDASNLETGVPSRFSGSGSGTDFTLTISSLQPEDFATYYCQQGYYLWTFGQGTKVEIKR
notes: also called AG10131; Hit ID 5365
B1: binds.
